Fold lower Kd than for SCC1^350–550 data for one substance are collected here from doi:10.1101/2025.03.24.644901.

For this assay, the target named is MBP-SCC1 (aa 100-320) with C-terminal tetracysteine motif, FlAsH-labelled (human) (UniProt O60216). Kind of assay: fluorescence polarisation.
Sequence of MBP-SCC1 (aa 100-320) with C-terminal tetracysteine motif, FlAsH-labelled (human) (O60216 100-320): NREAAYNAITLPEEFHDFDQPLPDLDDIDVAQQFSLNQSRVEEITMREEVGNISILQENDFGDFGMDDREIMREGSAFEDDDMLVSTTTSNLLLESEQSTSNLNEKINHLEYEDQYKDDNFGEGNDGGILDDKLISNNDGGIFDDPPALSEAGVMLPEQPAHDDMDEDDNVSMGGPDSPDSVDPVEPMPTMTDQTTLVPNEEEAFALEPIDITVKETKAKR

Substance “inactive apo-separase (separase^C2029S), Q14674 1-2120” had a fold lower Kd than for SCC1^350–550 of 3 fold.
